# From US12065466B2, “Methods and compositions for protein sequencing” (Quantum-Si Incorporated, priority 2020, dated 2024)
# Substitutions are numbered along the chain they refer to. Names may count otherwise. Like-named read-outs stand apart in the source and are kept apart here.
# B1: PS389: ClpS protein, SEQ ID NO: 17 (protein)
# chain: MLNSAAFKAASASPVIAPERSGQVTQKPYPTYKVIVLNDDFNTFQHVHDCLVKYIPGMTSDRAWQLTHQVHNDGQAIVWVGPQEQAELYHQQLSRAGLTMAPIEAA
# B2: PS501: UBR-box domain homolog, SEQ ID NO: 129 (protein, listed as Amanita thiersii)
# chain: MICGQIIGKGESCFRCRDCGLDESCVMCSQCFHATDHINHNVSFFVSQQPGGCCDCGDEEAWKKPMNCPYHPP
# B3: Escherichia coli ClpS M40A: ClpS protein, SEQ ID NO: 109 (protein, listed as Escherichia coli)
# chain: MGKTNDWLDFDQLAEEKVRDALKPPSMYKVILVNDDYTPAEFVIDVLQKFFSYDVERATQLMLAVHYQGKAICGVFTAEVAETKVAMVNKYARENEHPLLCTLEKA
# B4: PS391: ClpS protein, SEQ ID NO: 19 (protein)
# chain: MGQTVEKPRVEGPGTGLGGSWRVIVRNDDHNTFDHVARTLARFIPGVSLERGHEIAKVIHTTGRAVVYTGHKEAAEHYWQQLKGAGLTMAPLEQG
# B5: PS382: ClpS protein, SEQ ID NO: 15 (protein)
# chain: MSDSPVIKEIKKDNIKEADEHEKKEREKETSAWKVILYNDDIHNFTYVTDVIVKVVGQISKAKAHTITVEAHSTGQALILSTWKSKAEKYCQELQQNGLTVSIIHESQLKDKQKK
# B6: Plasmodium falciparum ClpS: ClpS protein, SEQ ID NO: 110 (protein, listed as Plasmodium falciparum)
# chain: MFKDLKPFFLCIILLLLLIYKCTHSYNIKNKNCPLNFMNSCVRINNVNKNTNISFPKELQKRPSLVYSQKNFNLEKIKKLRNVIKEIKKDNIKEADEHEKKEREKETSAWKVILYNDDIHNFTYVTDVIVKVVGQISKAKAHTITVEAHSTGQALILSTWKSKAEKYCQELQQNGLTVSIIHESQLKDKQKK
# B7: PS392: ClpS protein, SEQ ID NO: 20 (protein)
# chain: MSVEIIEKRSTVRKLAPRYRVLLHNDDFNPMEYVVQTLMATVPSLTQPQAVNVMMEAHTNGMGLVIVCALEHAEFYAETLNNHGLGSSIEPDD
# B8: PS368: ClpS protein, SEQ ID NO: 1 (protein)
# chain: MASAPSTTLDKSTQVVKKTYPNYKVIVLNDDLNTFDHVANCLIKYIPDMTTDRAWELTNQVHYQGQAIVWTGPQEQAELYHQQLRREGLTMAPLEAA
# B9: PS504: UBR-box domain homolog, SEQ ID NO: 132 (protein, listed as Galleria mellonella)
# chain: MLCGKVFKQGEPAYSCRECGMDNTCVLCVECFKVSPHRHHKYKMGQSGGGGCCDCGDTEAWKRDPFCERHAK
# B10: PS510: UBR-box domain homolog, SEQ ID NO: 138 (protein, listed as Camponotus floridanus)
# chain: MICGRMFKMGEPTYSCRQCGMDSTCVLCVDCFKQSAHRNHKYKMGTSSGGGCCDCGDTEAWKNEPFCKIHLA
# B11: PS515: UBR-box domain homolog, SEQ ID NO: 143 (protein, listed as Wasmannia auropunctata)
# chain: B10 chain with R5K, M9I, Q18E, N63K, I69T, L71V, A72V
# B12: PS506: UBR-box domain homolog, SEQ ID NO: 134 (protein, listed as Capitella teleta)
# chain: MLCGKVFKMGELTYSCRDCGTDPTCVLCMDCFQHSAHKKHRYKMAASGGGGYCDCGDREAWKAEPFCDVHKR
# B13: PS390: ClpS protein, SEQ ID NO: 18 (protein)
# chain: MLSIAAVTEAPSKGVQTADPKTVRKPYPNYKVIVLNDDFNTFQHVSSCLLKYIPGMSEARAWELTNQVHFEGLAVVWVGPQEQAELYYAQLKNAGLTMAPPEPA
# B14: PS395: ClpS protein, SEQ ID NO: 23 (protein)
# chain: MTVSQSKTQGAPAAQSATELEYEGLWRVVVLNDPVNLMSYVVLVFKKVFGFDETTARKHMLEVHEQGRSVVWSGMREKAEAYAFTLQQWHLTTVLEQDEVR
# B15: PS378: ClpS protein, SEQ ID NO: 11 (protein)
# chain: MXPQEVEEVSFLESKEHEIVLYNDDVNTFDHVIECLVKICNHNYLQAEQCAYIVHHSGKCGVKTGSLEELIPKCNALLEEGLSAEVI
# modifications: not fully specified; X: residue not identified in the source
# B16: PS508: UBR-box domain homolog, SEQ ID NO: 136 (protein)
# chain: MLCGRVFKEGETVYSCRDCAIDPTCVLCIECFQKSVHKSHRYKMHASAGGGFCDCGDLEAWKTGPCCSQHDP
# modifications: Anabarilius graham
# B17: PS512: UBR-box domain homolog, SEQ ID NO: 140 (protein, listed as Mastacembelus armatus)
# chain: B16 chain with I29M, E30D, K34D, L58V, T63I, C66Y, Q69K
# B18: PS502: UBR-box domain homolog, SEQ ID NO: 130 (protein, listed as Helobdella robusta)
# chain: MVCLKVFKLGEPTYSCRSVTCGMDPTCVLCVDCFQNSSHKLHKYKMSTSGGGGYCDCGDLEAWKADPLCDLHKL
# B19: PS511: UBR-box domain homolog, SEQ ID NO: 139 (protein, listed as Habropoda laboriosa)
# chain: MICGKVFKMGEATYSCKECGVDPTCVLCADCFKQSAHRHHKYRMGTSSGGGFCDCGDIEAWKKEPFCNTHLA
# B20: PS393: ClpS protein, SEQ ID NO: 21 (protein)
# chain: MSDEDGEDGDENAVGIATRTRTRTKKPTPYRVLLLNDDYTPMEFVVLVLQRFFRMSIEDATRVMLQVHQKGVGVCGVFTYEVAETKVSQVIDFARQNQHPLQCTLEKA
# B21: PS394: ClpS protein, SEQ ID NO: 22 (protein)
# chain: MAERRDTGDDEGTGLGIATKTRSKTKKPTPYRVLMLNDDYTPMEFVVLCLQRFFRMNMEEATRVMLHVHQKGVGVCGVFSYEVAETKVGQVIDFARANQHPLQCTLEKA
# B22: Saccharomyces cerevisiae GID10: SEQ ID NO: 125 (protein, listed as Saccharomyces cerevisiae)
# chain: MTSLNIMGRKFILERAKRNDNIEEIYTSAYVSLPSSTDTRLPHFKAKEEDCDVYEEGTNLVGKNAKYTYRSLGRHLDFLRPGLRFGGSQSSKYTYYTVEVKIDTVNLPLYKDSRSLDPHVTGTFTIKNLTPVLDKVVTLFEGYVINYNQFPLCSLHWPAEETLDPYMAQRESDCSHWKRFGHFGSDNWSLTERNFGQYNHESAEFMNQRYIYLKWKERFLLDDEEQENQMLDDNHHLEGASFEGFYYVCLDQLTGSVEGYYYHPACELFQKLELVPTNCDALNTYSSGFEIA
# B23: PS513: UBR-box domain homolog, SEQ ID NO: 141 (protein, listed as Pyrenophora seminiperda)
# chain: MPCGHIFKNGEATYRCKTCTADDTCVLCARCFDASDHEGHQVFVSVSPGNSGCCDCGDDEAWVRPVHCNIHSA
# B24: PS509: UBR-box domain homolog, SEQ ID NO: 137 (protein)
# chain: MICGHGFKTGEPTYSCRDCATDPTCVLCISCFQKSPHREHRYKMSASGGGGYCDCGDPEAWKIEPFCEQHKP
# modifications: Lottia gigantean
# B25: PS380: ClpS protein, SEQ ID NO: 13 (protein)
# chain: MGDIYGESNPEEVSCIDSLSEEGNELILFNDNIHTFEYVIDCLVAICSLSYEQASNCAYIVDRKGLCTVKHGSYDELLIMYHALVEKDLKVEIR
# B26: PS514: UBR-box domain homolog, SEQ ID NO: 142 (protein, listed as Tribolium castaneum)
# chain: MVCGRVFKLGEPTYSCRECGMDNTCVLCVNCFKNSEHRFHKYKMGTSQGGGCCDCGDVEAWKKAPFCDVHIA
# B27: PS503: UBR-box domain homolog, SEQ ID NO: 131 (protein, listed as Hydra vulgaris)
# chain: MFCGRLFKVGDPTYTCKDCAADPTCVFCHDCFHQSVHTKHKYKLFASQGRGGYCDCGDKEAWTNDPACNKHKE
# B28: PS507: UBR-box domain homolog, SEQ ID NO: 135 (protein, listed as Sparassis crispa)
# chain: MPCGHIFKKGESCFRCKDCALDDSCVLCSKCFEATDHANHNVSFFIAQQSGGCCDCGDIEAWLVPIDCPFHPV
# B29: PS388: ClpS protein, SEQ ID NO: 16 (protein)
# chain: MVTTLSADVYGMATAPTVAPERSNQVVRKTYPNYKVIVLNDDFNTFQHVAECLMKYIPGMSSDRAWDLTNQVHYEGQAIVWVGPQEPAELYHQQLRRAGLTMAPLEAA
# Tests used:
# [1] = tested on: amino acid at a terminal position of a polypeptide; assay: Amino acid binding preference of recognition proteins (Tables 1 and 2); conditions: Table 1, ClpS proteins; amino acid identity at a terminal position of a polypeptide; inferred from literature and/or demonstrated by the inventors
# Description: It should be appreciated that these sequences and other examples described herein are meant to be non-limiting, and recognition molecules in accordance with the application can include any homologs, variants thereof, or fragments thereof minimally containing domains or subdomains responsible for peptide recognition.
# [2] = tested on: amino acid at a terminal position of a polypeptide; conditions: Table 2; amino acid identity at a terminal position (phosphotyrosine also internal); inferred from literature and/or demonstrated by the inventors; cited from earlier work
Molecule,Binding Pref. [1],Binding Pref. [2]
B1,"F, Y, L",
B2,,"K, R, H"
B3,"F, W, Y, L",
B4,"F, Y, W, L",
B5,"F, Y, W, L",
B6,"F, W, Y, L",
B7,"F, Y, W",
B8,"F, Y, W, L",
B9,,"K, R, H"
B10,,"K, R, H"
B11,,"K, R, H"
B12,,"K, R, H"
B13,"F, Y, L",
B14,"F, Y, W, L",
B15,"F, Y, W, L",
B16,,"K, R, H"
B17,,"K, R, H"
B18,,"K, R, H"
B19,,"K, R, H"
B20,"F, Y, W, L",
B21,"F, Y, W, L",
B22,,"P, M, V"
B23,,"K, R, H"
B24,,"K, R, H"
B25,"F, W",
B26,,"K, R, H"
B27,,"K, R, H"
B28,,"K, R, H"
B29,"F, Y, L",
